T1: human CEACAM5 on CEACAM5-expressing cancer cell lines (human, UniProt P06731 35-685)
T1 construct: whole, on cells; also called CEACAM5 on SK-CO-1, MKN-45, HPAF-II, SNU-C1, Ls174T, LoVo cells
T1 sequence (looked up): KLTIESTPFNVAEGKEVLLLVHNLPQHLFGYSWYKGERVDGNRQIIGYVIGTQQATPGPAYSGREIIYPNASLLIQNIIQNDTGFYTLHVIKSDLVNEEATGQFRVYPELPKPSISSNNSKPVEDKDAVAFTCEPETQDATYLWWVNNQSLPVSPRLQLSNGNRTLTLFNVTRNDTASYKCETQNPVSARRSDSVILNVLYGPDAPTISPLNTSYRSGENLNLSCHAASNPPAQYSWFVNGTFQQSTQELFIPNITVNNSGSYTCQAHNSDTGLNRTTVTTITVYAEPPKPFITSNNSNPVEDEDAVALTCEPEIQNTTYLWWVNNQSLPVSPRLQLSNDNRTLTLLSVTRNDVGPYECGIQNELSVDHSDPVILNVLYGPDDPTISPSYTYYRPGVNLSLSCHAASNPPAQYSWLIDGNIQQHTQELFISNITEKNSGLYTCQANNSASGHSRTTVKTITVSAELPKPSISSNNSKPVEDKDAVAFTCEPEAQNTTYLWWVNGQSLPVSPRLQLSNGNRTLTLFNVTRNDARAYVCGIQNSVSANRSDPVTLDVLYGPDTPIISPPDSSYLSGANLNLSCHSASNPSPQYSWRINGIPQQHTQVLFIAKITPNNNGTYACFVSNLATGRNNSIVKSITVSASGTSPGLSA


What was measured:
[1] = molecular target: T1, human CEACAM5 on CEACAM5-expressing …; test: flow cytometry on MKN-45 cells (carry CEACAM5 and CD47), PE anti-human IgG Fc
Method: (§1) The binding of CD47×CEACAM5 bispecific antibodies was tested on CEACAM5-expressing human gastric adenocarcinoma cells (e.g. MKN-45), on CEACAM5-expressing human colorectal cancer cells (SK-CO-1, SNU-C1, Ls174T, and LoVo), and on CEACAM5-expressing pancreatic adenocarcinoma cells (HPAF-II).
(§2) Cells were harvested, counted, checked for viability and resuspended at 3×10⁶ cells/ml in FACS buffer (PBS 2% BSA, 0.1% NaN3). 100 μl of the cell suspension was distributed in V-bottom 96-well plates (3×10⁵ cells/well). The supernatant was removed by centrifugation 3 minutes at 4° C., 1300 rpm. Increasing concentrations of the antibody according to the invention were then added into the wells and incubated for 15 minutes at 4° C. Cells were washed twice with cold FACS buffer and re-incubated for further 15 minutes at 4° C. with the PE (R-phycoerythrin)-conjugated mouse anti-human IgG Fc secondary antibody (SouthernBiotech, pre-diluted 1:100 in FACS buffer). Cells were washed twice with cold FACS buffer and resuspended in 300 μl FACS buffer with 1:15000-diluted SytoxBlue (Life Technologies). Fluorescence, specifically mean fluorescence […] (MFI), was determined using a Cytoflex […] flow cytometer. Binding curves and […] and Emax values were obtained and calculated using GraphPad Prism7 software.

[2] = molecular target: T1, human CEACAM5 on CEACAM5-expressing …; test: flow cytometry on SNU-C1 cells (carry CEACAM5 and CD47), PE anti-human IgG Fc
Method: as §1, §2

[3] = molecular target: T1, human CEACAM5 on CEACAM5-expressing …; test: flow cytometry on HPAF-II cells (carry CEACAM5 and CD47), PE anti-human IgG Fc
Method: as §1, §2

[4] = molecular target: T1, human CEACAM5 on CEACAM5-expressing …; test: flow cytometry on SK-CO-1 cells (carry CEACAM5 and CD47), PE anti-human IgG Fc
Method: as §1, §2

[5] = molecular target: T1, human CEACAM5 on CEACAM5-expressing …; test: flow cytometry on LoVo cells (carry CEACAM5 and CD47), PE anti-human IgG Fc
Method: as §1, §2

[6] = molecular target: T1, human CEACAM5 on CEACAM5-expressing …; test: flow cytometry on Ls174T cells (carry CEACAM5 and CD47), PE anti-human IgG Fc
Method: as §1, §2

[7] = molecular target: T2, human CD47 expressed at the surface of MKN-45 cells (human, UniProt Q08722 19-323); test: CD47/SIRPα blocking assay on MKN-45 cells (carry CD47 and CEACAM5), imaging of bound SIRPα-mouseFc
T2 construct: whole, on cells; MKN-45 cells express both CD47 and CEACAM5; also called hCD47
T2 sequence (Q08722 19-323): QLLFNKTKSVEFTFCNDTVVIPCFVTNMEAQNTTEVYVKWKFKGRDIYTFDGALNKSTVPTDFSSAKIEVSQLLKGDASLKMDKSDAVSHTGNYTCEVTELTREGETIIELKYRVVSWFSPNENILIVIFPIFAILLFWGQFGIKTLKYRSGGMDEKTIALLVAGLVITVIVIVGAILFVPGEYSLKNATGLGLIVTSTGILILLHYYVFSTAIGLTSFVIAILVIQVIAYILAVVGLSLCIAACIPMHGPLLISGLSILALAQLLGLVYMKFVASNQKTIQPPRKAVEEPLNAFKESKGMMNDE
Description: The cell-based assay monitoring the interaction of soluble SIRPa with human CD47 expressed at the surface of MKN-45 cells as described below was used for the detection of the blocking activity. Concentration-response experiments with bispecific antibodies according to the invention allowed determination of inhibition curves (see FIG. 4) and of IC50 values (see Table 12).
MKN-45 cancer cells, expressing both CD47 and CEACAM5, were stained with CFSE violet to allow the imaging system (CX5) to detect the cells. Briefly, 3'000 stained MKN-45 cells per well were seeded in a 384 optical well plate (Costar) and incubated for 50 minutes with increased concentrations of bispecific antibodies of the invention ([…] to 333 nM, in quadruplicates). Then, a fixed concentration of SIRPα-mouseFc premixed with anti-mouse IgG-Fc AF647 coupled antibody (Jackson Immunoresearch diluted 1:2000) was added at 50 ng/mL final. After an incubation of 3 hours and 30 minutes, images of the fluorescence signals emitted by the detected bound SIRPa on the plates were acquired with the imaging system (CX5, Thermo Fisher). Fluorescence signals (mean fluorescence intensity MFI) were plotted according to the dose range tested, and IC50 was calculated by the software (Prism, GraphPad).

Row | EC50 [1] | Emax (MFI) [1] | EC50 [2] | Emax (MFI) [2] | EC50 [3] | Emax (MFI) [3] | EC50 [4] | Emax (MFI) [4] | EC50 [5] | Emax (MFI) [5] | EC50 [6] | Emax (MFI) [6] | IC50 [7] | Binder
1 | 10 nM | 1.18e+06 MFI | 4.4 nM | 280000 MFI | 11.3 nM | 940000 MFI | 17.3 nM | 900000 MFI | 22 nM | 260000 MFI | 11.3 nM | 77000 MFI | 0.07 nM | K2AC82 (bispecific antibody, human IgG1, kappa, lambda, Kappa-lambda body; also called CD47xCEACAM5 bispecific antibody K2AC82; AC82 (CEACAM5 arm)) heavy: not shown light 1: QSVLTQPPSVSAAPGQKVTISCSGSSSNIGYGLVSWYQQLPGTAPKLLIYGINKRPSGIPDRFSGSKSGTSATLGITGLQTGDEADYYCGTWDFSYRVDFGGGTKLTVLGQPKAAPSVTLFPPSSEELQANKATLVCLISDFYPGAVTVAWKADSSPVKAGVETTTPSKQSNNKYAASSYLSLTPEQWKSHRSYSCQVTHEGSTVEKTVAPTECS light 2: not shown
2 | 8 nM | 1.64e+06 MFI | 2.53 nM | 400000 MFI |  |  | 12.7 nM | 1.3e+06 MFI | 16 nM | 380000 MFI | 6 nM | 100000 MFI | 0.05 nM | K2AC91 (bispecific antibody, human IgG1, kappa, lambda, Kappa-lambda body; also called CD47xCEACAM5 bispecific antibody K2AC91; AC91 (CEACAM5 arm)) heavy: not shown light 1: QSVLTQPPSVSAAPGQKVTISCSGSSSNIGIGLVSWYQQLPGTAPKLLIYTVNNRPSGIPDRFSGSKSGTSATLGITGLQTGDEADYYCGTFDFSYGIVFGGGTKLTVLGQPKAAPSVTLFPPSSEELQANKATLVCLISDFYPGAVTVAWKADSSPVKAGVETTTPSKQSNNKYAASSYLSLTPEQWKSHRSYSCQVTHEGSTVEKTVAPTECS light 2: not shown
3 | 8 nM | 1.35e+06 MFI | 3.13 nM | 370000 MFI | 7.3 nM | 1.2e+06 MFI | 14.7 nM | 1.1e+06 MFI | 20 nM | 320000 MFI | 6.7 nM | 70000 MFI | 0.08 nM | K2AC117 (bispecific antibody, human IgG1, kappa, lambda, Kappa-lambda body; also called CD47xCEACAM5 bispecific antibody K2AC117; AC117 (CEACAM5 arm)) heavy: not shown light 1: QSVLTQPPSVSAAPGQKVTISCSGSSSNIGIGLVSWYQQLPGTAPKLLIYNGNVRPSGIPDRFSGSKSGTSATLGITGLQTGDEADYYCGTWDFSYRVDFGGGTKLTVLGQPKAAPSVTLFPPSSEELQANKATLVCLISDFYPGAVTVAWKADSSPVKAGVETTTPSKQSNNKYAASSYLSLTPEQWKSHRSYSCQVTHEGSTVEKTVAPTECS light 2: not shown

Reference: US20220195067A1 (LAMKAP BIO BETA, published 2022)
